Experimental data: doi:10.1101/2020.10.14.337170
Read-outs that look alike come from different tables or passages of the source. Values belong to the substance of their own block, whether it stands above or below them.

Legend:
[1] = molecular target: Trypanosoma cruzi (Sylvio X10) KKT4^117–218 (Trypanosoma cruzi (Sylvio X10)); assay: crystal structure
[2] = molecular target: KKT4^2–114 (Trypanosoma brucei); assay: SEC-MALS
[3] = molecular target: KKT4^2–114 (Trypanosoma brucei); assay: SEC-MALS; remark: listed apart in the source
[4] = molecular target: Fluorescently-labelled phosphopeptide derived from KKT8 (Trypanosoma brucei); assay: fluorescence polarisation
[5] = molecular target: Leishmania mexicana KKT4^184–284 (Leishmania mexicana); assay: crystal structure
[6] = molecular target: KKT4^101–352 (Trypanosoma brucei); assay: SEC-MALS
[7] = molecular target: SNAP-6HIS-3FLAG-KKT4 (KKT4^2–645) (Trypanosoma brucei); assay: SEC-MALS

Substance: Trypanosoma cruzi (Sylvio X10) KKT4^117–218 (domain or fragment)
stoichiometry N [1]: 2

Substance: KKT4^2–114 (domain or fragment)
stoichiometry N [2]: 4
stoichiometry N [3]: 3

Substance: KKT4^463–645 (KKT4 BRCT domain) (domain or fragment)
Kd [4]: 30 µM

Substance: Leishmania mexicana KKT4^184–284 (domain or fragment)
stoichiometry N [5]: 2

The remaining lines, values ahead:

stoichiometry N [6]: 2
Substance: KKT4^101–352 (domain or fragment)

stoichiometry N [7]: 4
Substance: SNAP-6HIS-3FLAG-KKT4 (KKT4^2–645) (natural protein)
